Measurements: publication PMC12289918 (Nature Communications, 2025)

Molecular target: T1, K11-HTS-Tail (KLP-11 residues 537-782) (Caenorhabditis elegans, UniProt Q19633 537-782)
T1 sequence (looked up): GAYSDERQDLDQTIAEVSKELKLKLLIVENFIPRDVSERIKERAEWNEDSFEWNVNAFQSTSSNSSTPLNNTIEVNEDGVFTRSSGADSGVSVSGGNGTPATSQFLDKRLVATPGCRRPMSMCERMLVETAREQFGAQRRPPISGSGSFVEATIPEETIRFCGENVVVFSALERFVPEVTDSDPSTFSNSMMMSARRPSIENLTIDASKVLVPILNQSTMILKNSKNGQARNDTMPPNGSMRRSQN
Test: SEC-MALS

stoichiometry N: 1
B1: K20-HTS-Tail (KLP-20 residues 527-646) (domain or fragment, Caenorhabditis elegans, UniProt Q965T6 527-646, looked up)
chain: EDHQRQVEAMLDDIRQLRKELLLNIAIIDEYIPVEHVELIEKYVSWSEEHGDWQLKAIAYTGNNMRASAPPAKKEFSNNNQTVPMYYSYRADLGASTAEHRPRTSSKKHRASIRLQQLLT
